# Experimental data as given in paper PMC2952221.
# Molecular target: 40 S ribosomal subunit, wild type (RDN+) (S. cerevisiae (endogenous in NOY908)) (UniProt P32905)
# Test: co-sedimentation
# UniProt P32905, sequence (P32905 whole entry, looked up, tested part not stated): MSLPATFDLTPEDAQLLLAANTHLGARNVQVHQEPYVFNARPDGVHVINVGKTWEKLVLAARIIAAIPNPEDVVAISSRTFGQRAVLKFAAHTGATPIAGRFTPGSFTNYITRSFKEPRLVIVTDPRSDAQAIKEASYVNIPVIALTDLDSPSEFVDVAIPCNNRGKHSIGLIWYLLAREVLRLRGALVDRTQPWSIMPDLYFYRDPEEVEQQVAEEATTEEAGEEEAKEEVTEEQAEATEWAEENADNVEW
row,percent of the factor loaded on free 40 S subunits,Substance
1,< 5%,eIF2 (heterotrimeric factor) (from UniProt P20459 1-304; P09064 1-285; P32481 1-527) (complex)
2,< 5%,eIF3 (from UniProt P38249 1-964; Q04067 1-274) (complex)
3,< 5%,eIF5 (from UniProt P38431 1-405) (natural protein)
